Source: PMC10953402, “Structure and Function of the α‐Hydroxylation Bimodule of the Mupirocin Polyketide Synthase” (Angewandte Chemie (International Ed. in English), 2023)

B1: Fre (enzyme, E. coli, UniProt P0AEN1 1-233, looked up)
chain: MTTLSCKVTSVEAITDTVYRVRIVPDAAFSFRAGQYLMVVMDERDKRPFSMASTPDEKGFIELHIGASEINLYAKAVMDRILKDHQIVVDIPHGEAWLRDDEERPMILIAGGTGFSYARSILLTALARNPNRDITIYWGGREEQHLYDLCELEALSLKHPGLQVVPVVEQPEAGWRGRTGTVLTAVLQDHGTLAEHDIYIAGRFEMAKIARDLFCSERNAREDRLFGDAFAFI
notes: NAD(P)H:flavin oxidoreductase Fre of E. coli (GenBank M61182); Purified as the expected dimer; also called oxidoreductase Fre; E. coli Fre; source: E. coli, overexpressed, purified
B2: MupA (enzyme, Pseudomonas fluorescens, UniProt Q9AH80 1-369, looked up)
chain: MSVEQLLGLGVTNAARAPRQPAFSLLFFSDVREDISASEKYEFARSLTLFGDAQGFEAVYFPERHFHEFGAIYPDSAVMAASLIPQTRHIRFRTAGISLPLHHPARVVESWSMNDVLSGGRVDLGFGSGWSRPDFLLAPHAYEDRREVMWQRIEQVRRLWAGERLSFPGPGGDPVSVVTFPRPLQTSLNVWILVAQNTESFIAAGKAGFNVFTMLYGIDLPDLAEKIGLYRQARRDAGFDPASGRVTLMLHTLVGPDSAWVRRAVEAPFKDYIRSSLVAHMKARATPDGRPLDATEQENVLQYAFERYYETGALFGTVDEVRYRVGQVLETGVDEIACLMDFGVDYAVVHQSLPYLEQLVASFQERSAQ
notes: MupA, predicted FMNH2-dependent monooxygenase of the mupirocin biosynthetic gene cluster of Pseudomonas fluorescens NCIMB 10586; Dimer by SEC, dimer of dimers above 2 mg/ml; Used unlabelled in the NMR titrations; they may stand in the Supporting Information; also called flavin-dependent monooxygenase MupA; FMO; source: cloned, over-expressed and purified to homogeneity

Legend:
[1] = molecular target: the molecule itself; assay: not stated; purification of recombinant Fre (Figure S6); how the dimer was shown is not told
[2] = molecular target: the molecule itself; assay: SEC; purified MupA alone, at higher concentrations (>2 mg/ml)
[3] = molecular target: the molecule itself; assay: SEC; purified MupA alone, at the lower concentrations (not above 2 mg/ml)

Protein	stoichiometry N [1]	stoichiometry N [2]	stoichiometry N [3]
B1	2	–	–
B2	–	4	2
